Experimental data taken from patent US7238491, “Pregnane X receptor method” (SmithKline Beecham Corporation).

Experiments:
mPXR1/hRXR heterodimer [1] = biological target: T1, mPXR1/hRXR heterodimer (Mus musculus / Homo sapiens, UniProt O54915;P19793 O54915:1-431,P19793:1-462); experiment: competition; same profile as hPXR/RXR; little or no competition; conditions: tags: none; TNT rabbit reticulocyte lysate
Method: (§1) Band Shift Assays hPXR, mPXR1, and hRXR were synthesized in vitro using the TNT rabbit reticulocyte lysate coupled in vitro transcription/translation system (Promega) according to the manufacturer's instructions. Gel mobility shift assays (20 µl) contained 10 mM Tris (pH 8.0), 40 mM KCl, 0.05% NP-40, 6% glycerol, 1 mM DTT, 0.2 µg of poly(dI-dC) and 2.5 µl each of in vitro synthesized PXR and RXR proteins. Competitor oligonucleotides were included at a 10-fold or 50-fold excess. After a 10 min incubation on ice, 10 ng of [^32P]-labeled oligonucleotide was added and the incubation continued for an additional 10 min. DNA-protein complexes were resolved on a 4% polyacrylamide gel in 0.5×TBE (1×TBE=90 mM Tris, 90 mM boric acid, 2 mM EDTA). Gels were dried and subjected to autoradiography at –70° C. The following oligonucleotides were used as either radiolabeled probes or competitors (sense strand is shown):
(§2) In order to determine whether hPXR interacted directly with the CYP3A4 IR6 response element, band shift assays were performed.

[2] = biological target: T2, hPXR/hRXR heterodimer (RXR isoform not stated) (Homo sapiens, UniProt O75469;P19793 O75469:1-434,P19793:1-462); experiment: competition; little or no competition at 10- or 50-fold excess in EMSA; conditions: tags: none; TNT rabbit reticulocyte lysate
T2 sequence (O75469 whole entry, chain 1 of 2, canonical isoform): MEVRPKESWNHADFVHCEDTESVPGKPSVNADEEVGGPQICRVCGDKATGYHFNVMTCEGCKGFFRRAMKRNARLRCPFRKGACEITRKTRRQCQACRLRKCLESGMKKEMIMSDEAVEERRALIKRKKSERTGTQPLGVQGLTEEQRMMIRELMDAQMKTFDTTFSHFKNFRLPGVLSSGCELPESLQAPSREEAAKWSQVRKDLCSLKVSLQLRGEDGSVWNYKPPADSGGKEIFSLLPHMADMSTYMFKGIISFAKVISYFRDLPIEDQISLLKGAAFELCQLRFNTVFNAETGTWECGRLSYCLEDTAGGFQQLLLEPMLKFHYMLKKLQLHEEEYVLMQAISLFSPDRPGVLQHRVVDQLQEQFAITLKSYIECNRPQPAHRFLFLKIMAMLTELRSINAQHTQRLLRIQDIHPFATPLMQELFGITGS
T2 sequence (P19793 whole entry, chain 2 of 2, canonical isoform): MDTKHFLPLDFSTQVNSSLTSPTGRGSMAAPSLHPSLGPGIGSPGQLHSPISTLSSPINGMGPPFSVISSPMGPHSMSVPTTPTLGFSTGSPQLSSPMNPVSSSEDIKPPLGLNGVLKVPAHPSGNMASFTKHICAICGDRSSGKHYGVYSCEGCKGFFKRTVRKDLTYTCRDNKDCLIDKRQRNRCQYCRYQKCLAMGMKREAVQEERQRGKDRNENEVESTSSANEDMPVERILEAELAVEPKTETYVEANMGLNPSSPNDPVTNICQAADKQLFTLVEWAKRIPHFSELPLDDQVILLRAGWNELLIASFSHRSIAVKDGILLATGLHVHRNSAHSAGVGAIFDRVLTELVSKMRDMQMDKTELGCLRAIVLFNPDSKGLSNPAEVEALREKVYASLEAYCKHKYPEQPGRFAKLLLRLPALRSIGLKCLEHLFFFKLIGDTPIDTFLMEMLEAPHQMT
Method: as §1, §2

hRXR = hRXR (Homo sapiens, UniProt P19793 P19793:1-462); experiment: EMSA; RXR alone without PXR; conditions: tags: none; TNT rabbit reticulocyte lysate; label: 32P (probe)
Chain of hRXR (P19793 whole entry, one chain of several): as the sequence (P19793 whole entry, chain 2 of 2, canonical isoform) above
Method: as §1, §2

[3] = biological target: T2, hPXR/hRXR heterodimer (RXR isoform not …); experiment: EMSA; 10 mM Tris pH 8.0, 40 mM KCl, 0.05% NP-40, 6% glycerol, 1 mM DTT, poly(dI-dC), on ice; self-competed by unlabeled IR6; conditions: tags: none; TNT rabbit reticulocyte lysate; label: 32P (probe)
Method: as §1, §2

mPXR1/hRXR heterodimer [4] = biological target: T1, mPXR1/hRXR heterodimer; experiment: EMSA; same binding profile as hPXR/RXR; conditions: tags: none; TNT rabbit reticulocyte lysate; label: 32P (probe)
Method: as §1, §2

[5] = biological target: T2, hPXR/hRXR heterodimer (RXR isoform not …); experiment: competition; efficient competitor of IR6 probe at 10- or 50-fold excess in EMSA; conditions: tags: none; TNT rabbit reticulocyte lysate
Method: as §1, §2

mPXR1/hRXR heterodimer [6] = biological target: T1, mPXR1/hRXR heterodimer; experiment: competition; same profile as hPXR/RXR; competes with IR6 probe; conditions: tags: none; TNT rabbit reticulocyte lysate
Method: as §1, §2

T1 sequence (O54915 whole entry, chain 1 of 2): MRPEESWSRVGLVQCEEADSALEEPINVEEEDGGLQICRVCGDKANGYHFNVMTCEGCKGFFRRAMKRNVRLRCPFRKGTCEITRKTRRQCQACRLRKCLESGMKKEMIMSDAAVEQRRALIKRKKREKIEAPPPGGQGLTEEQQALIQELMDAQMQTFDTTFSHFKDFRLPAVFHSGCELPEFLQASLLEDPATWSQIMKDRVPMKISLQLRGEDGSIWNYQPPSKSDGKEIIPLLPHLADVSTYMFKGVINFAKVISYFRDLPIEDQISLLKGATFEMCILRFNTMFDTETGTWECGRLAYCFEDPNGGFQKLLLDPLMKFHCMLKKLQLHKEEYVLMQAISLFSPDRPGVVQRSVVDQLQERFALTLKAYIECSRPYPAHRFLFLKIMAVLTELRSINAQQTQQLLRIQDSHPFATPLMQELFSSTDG
T1 sequence (P19793 whole entry, chain 2 of 2): as the sequence (P19793 whole entry, chain 2 of 2, canonical isoform) above

B1: CYP3A4 IR6 m1 (dsDNA)
DNA 1: GATCAATATGTTCTCAAAGGAGAACAGTG
DNA 2: CACTGTTCTCCTTTGAGAACATATTGATC
mPXR1/hRXR heterodimer [1]
  binding result: no binding
[2]
  binding result: no binding

B2: CYP3A4 IR6 m2 (dsDNA)
DNA 1: GATCAATAACAACTCAAAGGAGGTCAGTG
DNA 2: CACTGACCTCCTTTGAGTTGTTATTGATC
mPXR1/hRXR heterodimer [1]
  binding result: no binding
[2]
  binding result: no binding

B3: CYP3A4 IR6 PXRE (dsDNA)
DNA 1: GATCAATATGAACTCAAAGGAGGTCAGTG
DNA 2: CACTGACCTCCTTTGAGTTCATATTGATC
hRXR
  binding result: no binding
[3]
  binding result: binds
mPXR1/hRXR heterodimer [4]
  binding result: binds

B4: CYP3A1 DR3 PXRE (dsDNA)
DNA 1: GATGCAGACAGTTCATGAAGTTCATCTAGATC
DNA 2: GATCTAGATGAACTTCATGAACTGTCTGCATC
[5]
  binding result: binds
mPXR1/hRXR heterodimer [6]
  binding result: binds
